Test results from patent publication US20240309087A1 (SHANGHAI JUNSHI BIOSCIENCES, published 2024).

T1: human CD112R on Jurkat CD112R effector cells (human, UniProt Q6DKI7 1-326)
T1 sequence (looked up): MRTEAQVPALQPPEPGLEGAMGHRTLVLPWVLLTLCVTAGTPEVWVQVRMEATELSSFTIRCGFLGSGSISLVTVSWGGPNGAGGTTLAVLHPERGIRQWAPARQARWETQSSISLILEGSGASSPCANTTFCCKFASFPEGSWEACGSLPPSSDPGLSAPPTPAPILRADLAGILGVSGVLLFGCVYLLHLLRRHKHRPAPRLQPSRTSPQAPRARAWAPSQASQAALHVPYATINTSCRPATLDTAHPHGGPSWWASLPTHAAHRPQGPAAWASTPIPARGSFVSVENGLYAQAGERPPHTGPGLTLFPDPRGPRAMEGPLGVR

T2: hCD112R mFC recombinant protein (human; murine, UniProt Q6DKI7 41-160)
T2 construct: range 41-160; expressed in 293E cells; also called hCD112R ECD mFC; hCD112R-ECD-mFC; not shown: murine IgG2a Fc domain (MX2-mFc vector)
T2 sequence (looked up): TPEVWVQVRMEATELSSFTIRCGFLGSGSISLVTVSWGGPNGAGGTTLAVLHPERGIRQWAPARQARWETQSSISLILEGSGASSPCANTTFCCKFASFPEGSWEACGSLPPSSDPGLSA


Legend:
[1] = target: T1, human CD112R on Jurkat CD112R effector …; assay: cell-based or functional assay
[2] = target: T2, hCD112R mFC recombinant protein; assay: ELISA, coated hCD112R-ECD-mFC
Procedure: (§1) A plate was coated with a hCD112R-ECD-mFC protein (1.5 μg/mL) at a fixed concentration, and the humanized anti-CD112R antibodies diluted in a gradient (initial concentration: 1 μg/mL, 2.5-fold gradient dilution, 12 concentration gradients in total) were added to bind to the antigen. HRP-conjugated goat anti-human antibody IgG (Fc specific) (Sigma, A0170) was subjected to a 5000-fold dilution and used as a detection antibody for detection. The color development was performed with 0.1 mg/mL TMB, and finally stopped with 2 M hydrochloric acid. The plate was read at 420 nm/620 nm. EC₅₀ was obtained by fitting with a four-parameter logistic regression (4PL) model. The […] were COM701 (anti-CD112R antibody, Compugen, obtained by expression and purification according to the sequences in US20180280506A1) and the anti-KLH hu-IgG4 antibody.

[3] = target: T2, hCD112R mFC recombinant protein; assay: FACS competition, hCD112R mFc on CHO CD112 cells
Procedure: (§2) Cells CHO CD112 overexpressing human CD112 were co-incubated with a hCD112R mFc protein solution (5 μg/mL) prepared in a staining buffer (PBS+1% FBS), and the humanized anti-CD112R antibodies or the control antibodies at different concentrations (initial concentration: 100 μg/mL, 3-fold dilution, 10 concentration gradients) at 4° C. for 30 min. Unbound antibodies were then washed with a staining buffer and the cells were incubated with 1% (v/v) goat anti-mouse IgG Fc fluorescent secondary antibodies (Jackson ImmunoResearch) prepared in a staining buffer at 4° C. for 30 min in the dark. Finally, the cells were collected by using a flow cytometer (BD Canto II), and the fluorescent antibodies bound to the cell surface were detected. Raw data were analyzed by using FlowJo to obtain MFI values, and a four-parameter curve fitting was performed by using GraphPad Prism software to obtain IC₅₀ values. The positive control and the negative control were COM701 (anti-CD112R antibody, Compugen, obtained by expression and purification according to the sequences in US20180280506A1) and the anti-KLH hu-IgG4 antibody, respectively.

[4] = target: T2, hCD112R mFC recombinant protein; assay: ELISA, coated hCD112R-ECD-mFC; EC50 COM701/EC50 antibody
Procedure: as §1

[5] = target: T2, hCD112R mFC recombinant protein; assay: FACS competition, hCD112R mFc on CHO CD112 cells; IC50 COM701/IC50 antibody
Procedure: as §2

| Binder | EC50, CD112R/CD112 reporter [1] [µg/mL] | Relative activity (%), EC50 COM701/EC50 antibody [1] [%] | EC50 [2] [µg/mL] | IC50 [3] [µg/mL] | Relative activity (%) [4] [%] | Relative activity (%) [5] [%] |
| --- | --- | --- | --- | --- | --- | --- |
| Hu4 (antibody, IgG4, V domains shown, humanized IgG4; also called Hu-04) VH: EVQLVESGGGLVQPGGSLRLSCAASGFTFSSYHMSWVRQAPGKGLELVAAINSNDINTYYLDTVKGRFTISRDIAKNSLYLQMNSLRAEDTAVYYCARHEDYYGFAMDYWGQGTLVTVSS VL: DIVMTQSPDSLAVSLGERATINCKASQSVSNDVAWYQQKPGQPPKLLIYYVSHRFTGVPDRFSGSGSGTDFTLTISSLQAEDVAVYFCHQAYRSPWTFGQGTKLEIK | 0.0385 | 186 | 0.00295 | 4.22 | 144 | 94.2 |
| Hu7 (antibody, IgG4, V domains shown, humanized IgG4; also called Hu-07) VH: EVQLVESGGGLVKPGGSLRLSCAASGFTFSSYHMSWVRQAPGKGLELVSAINSNDINTYYLDTVKGRFTISRDIAKNSLYLQMNSLRAEDTAVYYCARHEDYYGFAMDYWGQGTLVTVSS VL: DIVMTQSPDSLAVSLGERATINCKASQSVTNDVAWYQQKPGQPPKLLIYYVSNHYTGVPDRFSGSGSGTDFTLTISSLQAEDVAVYFCQQAYRSPWTFGQGTKLEIK | 0.144 | 48.6 | 0.00432 | 5.06 | 91 | 78.6 |
| Hu10 (antibody, IgG4, V domains shown, humanized IgG4) VH: EVQLVESGGGLVKPGGSLRLSCAASGFTFSSYHMSWVRQAPGKGLELVSAINSNDINTYYLDTVKGRFTISRDIAKNSLYLQMNSLRAEDTAVYYCARHEDYYGFAMDYWGQGTLVTVSS VL: DIVMTQSPDSLAVSLGERATINCKASQSVSNDVAWYQQKPGQPPKLLIYYVSHRFTGVPDRFSGSGSGTDFTLTISSLQAEDVAVYFCHQAYRSPWTFGQGTKLEIK | 0.0377 | 199 | 0.00257 | 4.17 | 153 | 95.5 |
| Hu13 (antibody, IgG4, V domains shown, humanized IgG4) VH: EVQLVESGGGLVKPGGSLRLSCAASGFTFSSYHMSWVRQAPGKGLELVSAISRDGDSTYYPDTVKGRFTISRDNAKNSLYLQMNSLRAEDTAVYYCSRHEDYFGFAMDSWGQGTLVTVSS VL: DIVMTQSPDSLAVSLGERATINCKASQSVTNDVAWYQQKPGQPPKLLIYYVSNHYTGVPDRFSGSGSGTDFTLTISSLQAEDVAVYFCQQAYRSPWTFGQGTKLEIK | 0.0252 | 192 | 0.00433 | 2.19 | 132 | 164 |
| Hu19 (antibody, IgG4, V domains shown, humanized IgG4) VH: EVQLVESGGGLVKPGGSLRLSCAASGFTFSSYHMSWVRQAPGKGLELVSAISRDGDSTYYPDTVKGRFTISRDDAENSLYLQMNSLRAEDTAVYYCSRHEDYFGFAMDSWGQGTLVTVSS VL: DIVMTQSPDSLAVSLGERATINCKASQSVTNDVAWYQQKPGQPPKLLIYYVSNHYTGVPDRFSGSGSGTDFTLTISSLQAEDVAVYFCQQAYRSPWTFGQGTKLEIK | 0.0404 | 127 | 0.00411 | 2.48 | 139 | 144 |
| Hu25 (antibody, IgG4, V domains shown, humanized IgG4) VH: EVQLVESGGGLVQPGGSLRLSCAASGFTFSSYHMSWVRQAPGKGLELVAAISRDGDSTYYPDTVKGRFTISRDNAKNSLYLQMNSLRAEDTAVYYCSRHEDYFGFAMDSWGQGTLVTVSS VL: DIVMTQSPDSLAVSLGERATINCKASQSVTNDVAWYQQKPGQPPKLLIYYVSNHYTGVPDRFSGSGSGTDFTLTISSLQAEDVAVYFCQQAYRSPWTFGQGTKLEIK | 0.0412 | 157 | 0.00403 | 3.7 | 165 | 97 |
| Hu31 (antibody, IgG4, V domains shown, humanized IgG4) VH: EVQLVESGGGLVQPGGSLRLSCAASGFTFSSYHMSWVRQAPGKGLELVAAISRDGDSTYYPDTVKGRFTISRDDAENSLYLQMNSLRAEDTAVYYCSRHEDYFGFAMDSWGQGTLVTVSS VL: DIVMTQSPDSLAVSLGERATINCKASQSVTNDVAWYQQKPGQPPKLLIYYVSNHYTGVPDRFSGSGSGTDFTLTISSLQAEDVAVYFCQQAYRSPWTFGQGTKLEIK | 0.0507 | 110 | 0.00339 | 2.52 | 179 | 142 |
| Hu49 (antibody, IgG4, V domains shown, humanized IgG4) VH: EVQLVESGGGLVKPGGSLRLSCAASGFTFSSYHMSWVRQAPGKGLELVSAINSNGINTYYLDTVKGRFTISRDNAKNSLYLQMNSLRAEDTAVYYCARHEDYYGFAMDYWGQGTLVTVSS VL: DIVMTQSPDSLAVSLGERATINCKASQSVTNDVAWYQQKPGQPPKLLIYYVSNHYTGVPDRFSGSGSGTDFTLTISSLQAEDVAVYFCQQAYRSPWTFGQGTKLEIK | 0.0307 | 214 | 0.00495 | 2.47 | 176 | 97.5 |
| Hu55 (antibody, IgG4, V domains shown, humanized IgG4) VH: EVQLVESGGGLVQPGGSLRLSCAASGFTFSSYHMSWIRQAPGKGLELVAAINSNGINTYYLDTVKGRFTISRDNAKNSLYLQMNSLRAEDTAVYYCARHEDYYGFAMDYWGQGTLVTVSS VL: DIVMTQSPDSLAVSLGERATINCKASQSVTNDVAWYQQKPGQPPKLLIYYVSNHYTGVPDRFSGSGSGTDFTLTISSLQAEDVAVYFCQQAYRSPWTFGQGTKLEIK | 0.0223 | 302 | 0.00553 | 2.81 | 166 | 85.7 |
| Hu58 (antibody, IgG4, V domains shown, humanized IgG4) VH: EVQLVESGGGLVQPGGSLRLSCAASGFTFSSYHMSWIRQAPGKGLELVAAINSNGINTYYLDTVKGRFTISRDNAKNSLYLQMNSLRAEDTAVYYCARHEDYYGFAMDYWGQGTLVTVSS VL: DIVMTQSPDSLAVSLGERATINCKASQSVSNDVAWYQQKPGQPPKLLIYYVSHRFTGVPDRFSGSGSGTDFTLTISSLQAEDVAVYFCHQAYRSPWTFGQGTKLEIK | 0.0216 | 277 | 0.00488 | 3.25 | 172 | 74 |
| Hu32 (antibody, IgG4, V domains shown, humanized IgG4) VH: EVQLVESGGGLVQPGGSLRLSCAASGFTFSSYHMSWVRQAPGKGLELVAAISRDGDSTYYPDTVKGRFTISRDDAENSLYLQMNSLRAEDTAVYYCSRHEDYFGFAMDSWGQGTLVTVSS VL: AIQMTQSPSSLSASVGDRVTITCKASQSVTNDVAWYQQKPGKAPKLLIYYVSNHYTGVPSRFSGSGSGTDFTLTISSLQPEDFATYFCQQAYRSPWTFGQGTKLEIK | 0.0471 | 119 | 0.00404 | 2.82 | 150 | 127 |
| Hu50 (antibody, IgG4, V domains shown, humanized IgG4) VH: EVQLVESGGGLVKPGGSLRLSCAASGFTFSSYHMSWVRQAPGKGLELVSAINSNGINTYYLDTVKGRFTISRDNAKNSLYLQMNSLRAEDTAVYYCARHEDYYGFAMDYWGQGTLVTVSS VL: AIQMTQSPSSLSASVGDRVTITCKASQSVTNDVAWYQQKPGKAPKLLIYYVSNHYTGVPSRFSGSGSGTDFTLTISSLQPEDFATYFCQQAYRSPWTFGQGTKLEIK | 0.0268 | 245 | 0.00459 | 2.67 | 190 | 90 |
